Experimental findings from patent publication US5837813 are described below.

The IC50 is the concentration needed to halve the response being measured. A higher IC50 goes with weaker potency.

Assay [1] addresses human fibronectin (human) (UniProt P02751).
Assay [2] shares this target. Nature of the assay: solid-phase competition, 125I-fibronectin on coated fibronectin.
For assay [3] the target is unchanged. Kind of assay: solid-phase competition, 125I-14 kDa fragment on coated fibronectin.

B1: polypeptide P3 (peptide)
peptide: LISIQQYGHQEVTRFDFTTTSTSTPVTSNTV
Regarding B1, the ^125 I-fibronectin bound to IMR-90 cells after one hour in assay [1] was determined as 25%. The molecule further displayed an IC50 in assay [2] of 200 to 300 µM. In addition, in assay [3], the fold less potent than P1 was 100 fold.
